Assay results from the supplement of paper PMC10567573.

B1: VENTX (parent)
chain: VFQHHQYLSPLERKRLAREMQLSE
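Note: lentivirally expressed fusions sorted by FACS into six bins by GFP to DsRed ratio, PSI derived from sequencing read proportions per bin multiplied by bin number.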

Variants of: B1
Assay: protein stability index of a GFP-peptide fusion (GPS, HEK-293T) (PSI 1-6); higher = more stable
Details: c terminus: a fixed tail appended
VFQHHCYLSPLERKRLAREMQLSE [Q6C] gave a protein stability index of 1.83. VFQHHSYLSPLERKRLAREMQLSE [Q6S] showed a protein stability index of 2.3. Variant VFQHHEYLSPLERKRLAREMQLSE [Q6E] has a protein stability index of 3.66. VFQHHIYLSPLERKRLAREMQLSE [Q6I] showed a protein stability index of 2.17. VFQHHWYLSPLERKRLAREMQLSE [Q6W] gave a protein stability index of 2.17. For VFQHHHYLSPLERKRLAREMQLSE [Q6H], the protein stability index was 3.06. VFQHHPYLSPLERKRLAREMQLSE [Q6P] showed a protein stability index of 2.09. VFQHHKYLSPLERKRLAREMQLSE [Q6K] showed a protein stability index of 2.69. With VFQHHNYLSPLERKRLAREMQLSE [Q6N] the protein stability index was 3.05. Work on VFQHHRYLSPLERKRLAREMQLSE [Q6R] yielded a protein stability index of 2.47. In the case of VFQHHMYLSPLERKRLAREMQLSE [Q6M], the protein stability index is reported as 2.56. Work on VFQHHLYLSPLERKRLAREMQLSE [Q6L] yielded a protein stability index of 2.02. VFQHHAYLSPLERKRLAREMQLSE [Q6A] showed a protein stability index of 2.75. In the case of VFQHHTYLSPLERKRLAREMQLSE [Q6T], the protein stability index is reported as 2.75. VFQHHYYLSPLERKRLAREMQLSE [Q6Y] gave a protein stability index of 2.09. VFQHHDYLSPLERKRLAREMQLSE [Q6D] gave a protein stability index of 3.23. Variant VFQHHGYLSPLERKRLAREMQLSE [Q6G] has a protein stability index of 2.51. With VFQHHFYLSPLERKRLAREMQLSE [Q6F] the protein stability index was 1.84. VFQHHVYLSPLERKRLAREMQLSE [Q6V] gave a protein stability index of 2.42. In the case of VFQHHQRLSPLERKRLAREMQLSE [Y7R], the protein stability index is reported as 2.42. VFQHHQWLSPLERKRLAREMQLSE [Y7W] gave a protein stability index of 2.11. Work on VFQHHQPLSPLERKRLAREMQLSE [Y7P] yielded a protein stability index of 3.33. VFQHHQGLSPLERKRLAREMQLSE [Y7G] gave a protein stability index of 2.34. VFQHHQNLSPLERKRLAREMQLSE [Y7N] gave a protein stability index of 2.36. For VFQHHQDLSPLERKRLAREMQLSE [Y7D], the protein stability index was 3.84. VFQHHQCLSPLERKRLAREMQLSE [Y7C] showed a protein stability index of 2.5. With VFQHHQTLSPLERKRLAREMQLSE [Y7T] the protein stability index was 3.49. Work on VFQHHQHLSPLERKRLAREMQLSE [Y7H] yielded a protein stability index of 2.33. Work on VFQHHQFLSPLERKRLAREMQLSE [Y7F] yielded a protein stability index of 2.99. Work on VFQHHQQLSPLERKRLAREMQLSE [Y7Q] yielded a protein stability index of 3.27. With VFQHHQVLSPLERKRLAREMQLSE [Y7V] the protein stability index was 3.48. Variant VFQHHQELSPLERKRLAREMQLSE [Y7E] has a protein stability index of 3.22. In the case of VFQHHQALSPLERKRLAREMQLSE [Y7A], the protein stability index is reported as 2.98. Work on VFQHHQKLSPLERKRLAREMQLSE [Y7K] yielded a protein stability index of 2.71. With VFQHHQSLSPLERKRLAREMQLSE [Y7S] the protein stability index was 2.68. VFQHHQMLSPLERKRLAREMQLSE [Y7M] showed a protein stability index of 3.04. Work on VFQHHQILSPLERKRLAREMQLSE [Y7I] yielded a protein stability index of 2.54. In the case of VFQHHQLLSPLERKRLAREMQLSE [Y7L], the protein stability index is reported as 2.5. VFQHHQYLRPLERKRLAREMQLSE [S9R] showed a protein stability index of 2.64. For VFQHHQYLTPLERKRLAREMQLSE [S9T], the protein stability index was 2.21. Variant VFQHHQYLLPLERKRLAREMQLSE [S9L] has a protein stability index of 2.22. VFQHHQYLQPLERKRLAREMQLSE [S9Q] gave a protein stability index of 3.25. With VFQHHQYLDPLERKRLAREMQLSE [S9D] the protein stability index was 2.73. With VFQHHQYLWPLERKRLAREMQLSE [S9W] the protein stability index was 1.52. For VFQHHQYLAPLERKRLAREMQLSE [S9A], the protein stability index was 2. With VFQHHQYLIPLERKRLAREMQLSE [S9I] the protein stability index was 1.69. For VFQHHQYLVPLERKRLAREMQLSE [S9V], the protein stability index was 2.08. Variant VFQHHQYLPPLERKRLAREMQLSE [S9P] has a protein stability index of 2.88. VFQHHQYLEPLERKRLAREMQLSE [S9E] showed a protein stability index of 2.86. Work on VFQHHQYLGPLERKRLAREMQLSE [S9G] yielded a protein stability index of 2.38. VFQHHQYLYPLERKRLAREMQLSE [S9Y] showed a protein stability index of 2.21. In the case of VFQHHQYLMPLERKRLAREMQLSE [S9M], the protein stability index is reported as 2.33. VFQHHQYLNPLERKRLAREMQLSE [S9N] showed a protein stability index of 2.59. VFQHHQYLKPLERKRLAREMQLSE [S9K] gave a protein stability index of 2.39. Work on VFQHHQYLHPLERKRLAREMQLSE [S9H] yielded a protein stability index of 2.38. VFQHHQYLCPLERKRLAREMQLSE [S9C] showed a protein stability index of 2.17. In the case of VFQHHQYLFPLERKRLAREMQLSE [S9F], the protein stability index is reported as 1.99. For VFQPHQYLSPLERKRLAREMQLSE [H4P], the protein stability index was 3.27. For VFQCHQYLSPLERKRLAREMQLSE [H4C], the protein stability index was 2.56. With VFQGHQYLSPLERKRLAREMQLSE [H4G] the protein stability index was 3.26. VFQYHQYLSPLERKRLAREMQLSE [H4Y] showed a protein stability index of 2.21. VFQFHQYLSPLERKRLAREMQLSE [H4F] showed a protein stability index of 1.69. VFQTHQYLSPLERKRLAREMQLSE [H4T] showed a protein stability index of 3.06. Work on VFQAHQYLSPLERKRLAREMQLSE [H4A] yielded a protein stability index of 3.37. Work on VFQMHQYLSPLERKRLAREMQLSE [H4M] yielded a protein stability index of 2.31. Variant VFQLHQYLSPLERKRLAREMQLSE [H4L] has a protein stability index of 2.89. VFQDHQYLSPLERKRLAREMQLSE [H4D] gave a protein stability index of 3.68. VFQIHQYLSPLERKRLAREMQLSE [H4I] showed a protein stability index of 2.43. In the case of VFQEHQYLSPLERKRLAREMQLSE [H4E], the protein stability index is reported as 3.52. Work on VFQQHQYLSPLERKRLAREMQLSE [H4Q] yielded a protein stability index of 3.5. For VFQSHQYLSPLERKRLAREMQLSE [H4S], the protein stability index was 2.91. In the case of VFQKHQYLSPLERKRLAREMQLSE [H4K], the protein stability index is reported as 2.5. Variant VFQWHQYLSPLERKRLAREMQLSE [H4W] has a protein stability index of 2.03. VFQNHQYLSPLERKRLAREMQLSE [H4N] showed a protein stability index of 2.85. VFQVHQYLSPLERKRLAREMQLSE [H4V] gave a protein stability index of 2.7. In the case of VFQRHQYLSPLERKRLAREMQLSE [H4R], the protein stability index is reported as 2.37. In the case of VFQHSQYLSPLERKRLAREMQLSE [H5S], the protein stability index is reported as 2.63. Variant VFQHFQYLSPLERKRLAREMQLSE [H5F] has a protein stability index of 2.96. With VFQHEQYLSPLERKRLAREMQLSE [H5E] the protein stability index was 3.71. For VFQHIQYLSPLERKRLAREMQLSE [H5I], the protein stability index was 2.08. In the case of VFQHNQYLSPLERKRLAREMQLSE [H5N], the protein stability index is reported as 2.83. Variant VFQHWQYLSPLERKRLAREMQLSE [H5W] has a protein stability index of 1.96. In the case of VFQHMQYLSPLERKRLAREMQLSE [H5M], the protein stability index is reported as 3.19. Work on VFQHLQYLSPLERKRLAREMQLSE [H5L] yielded a protein stability index of 2.42. In the case of VFQHDQYLSPLERKRLAREMQLSE [H5D], the protein stability index is reported as 3.47. Work on VFQHRQYLSPLERKRLAREMQLSE [H5R] yielded a protein stability index of 1.93. VFQHAQYLSPLERKRLAREMQLSE [H5A] showed a protein stability index of 2.5. For VFQHCQYLSPLERKRLAREMQLSE [H5C], the protein stability index was 2.17. In the case of VFQHTQYLSPLERKRLAREMQLSE [H5T], the protein stability index is reported as 4.21. Work on VFQHPQYLSPLERKRLAREMQLSE [H5P] yielded a protein stability index of 3.21. Work on VFQHYQYLSPLERKRLAREMQLSE [H5Y] yielded a protein stability index of 2.43. For VFQHKQYLSPLERKRLAREMQLSE [H5K], the protein stability index was 2.94. For VFQHVQYLSPLERKRLAREMQLSE [H5V], the protein stability index was 2.78. With VFQHGQYLSPLERKRLAREMQLSE [H5G] the protein stability index was 3.71.
